Test results reported in article PMC7797058, “Characterization of the first tetrameric transcription factor of the GntR superfamily with allosteric regulation from the bacterial pathogen Agrobacterium fabrum” (Nucleic Acids Research, 2020).

Molecular target: T1, Atu1419-H3A H141A;H192A;H214A (Agrobacterium fabrum C58) (UniProt A9CJ36)
T1 sequence: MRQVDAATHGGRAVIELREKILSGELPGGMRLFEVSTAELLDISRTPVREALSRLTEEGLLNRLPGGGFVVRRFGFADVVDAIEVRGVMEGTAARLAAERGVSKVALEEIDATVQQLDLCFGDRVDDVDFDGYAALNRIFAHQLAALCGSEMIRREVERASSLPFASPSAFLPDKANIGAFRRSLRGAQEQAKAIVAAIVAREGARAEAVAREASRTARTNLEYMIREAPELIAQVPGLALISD
Assay: EMSA
Conditions: EMSA: 50 mM Tris-HCl pH 8, 150 mM NaCl, 30 nM DNA, 30 min at room temperature; gel 6% or 12% PAGE in TBE at 4 C

## AAGCGCCTGAACTGATTGCGCAGGTTCCGGGTCTCGCACTCATCAGCGACTAAGCGGCGGAAATCGCTGCAAATCCAGGGGTGGCGCCTTTTGGCGCCGCCTTTATTTTTGTCGACACCCTCCCTGACGCGGTAATTTTGCGCTTGCAATTTATCAAAGCACAGCGTTTCATGTATACATAGATGCGATTGCCAGGGAGGAGATGACAATGGCAAATTCCAGTCTGACCGAGGTTTTGAAGCAATATCCGAACCCCGTTGAAATGCTC (double strand) [Patu1420]
  binding: binds
